Reference: paper PMC9482650, “Quantitative fragmentomics allow affinity mapping of interactomes” (Nature Communications, 2022)

Columns and labels:
Test in all cases: holdup assay
Design in all cases: key: below the threshold = too weak to quantify, mostly under pKd 3.1 to 4
APBA3_2, O96018 = target: T1, APBA3_2, O96018
T1 sequence (O96018 480-570, limits assumed, looked up): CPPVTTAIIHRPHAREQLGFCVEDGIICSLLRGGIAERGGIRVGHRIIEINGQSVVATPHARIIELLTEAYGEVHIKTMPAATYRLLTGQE

DLG2_1, Q15700 = target: DLG2_1, Q15700
DLG2_3, Q15700 = target: DLG2_3, Q15700
DLG5_2, Q8TDM6 = target: DLG5_2, Q8TDM6
Sequence of DLG5_2, Q8TDM6 (Q8TDM6 714-800): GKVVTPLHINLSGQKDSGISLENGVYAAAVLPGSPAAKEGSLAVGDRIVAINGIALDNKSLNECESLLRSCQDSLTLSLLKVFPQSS

DVL1, O14640 = target: T2, DVL1, O14640
T2 sequence (O14640 246-333, limits assumed, looked up): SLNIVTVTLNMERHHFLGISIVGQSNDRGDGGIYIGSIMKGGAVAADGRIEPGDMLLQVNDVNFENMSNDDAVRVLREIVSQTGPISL

FRMPD4, Q14CM0 = target: FRMPD4, Q14CM0
Sequence of FRMPD4, Q14CM0 (Q14CM0 67-160): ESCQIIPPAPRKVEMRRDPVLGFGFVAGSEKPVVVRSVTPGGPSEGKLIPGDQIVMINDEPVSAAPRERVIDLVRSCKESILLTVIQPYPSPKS

INTU, Q9ULD6 = target: T3, INTU, Q9ULD6
T3 sequence (Q9ULD6 180-273, limits assumed, looked up): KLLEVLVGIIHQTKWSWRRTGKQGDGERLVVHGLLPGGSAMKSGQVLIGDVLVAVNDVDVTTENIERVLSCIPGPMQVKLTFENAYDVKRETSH

Inadl_7, Q8NI35 = target: Inadl_7, Q8NI35
Sequence of Inadl_7, Q8NI35 (Q8NI35 1219-1332): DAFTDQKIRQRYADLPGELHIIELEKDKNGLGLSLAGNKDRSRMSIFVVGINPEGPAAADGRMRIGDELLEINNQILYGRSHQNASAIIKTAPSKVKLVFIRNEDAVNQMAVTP

MAGI3_3, Q5TCQ9 = target: MAGI3_3, Q5TCQ9
Sequence of MAGI3_3, Q5TCQ9 (Q5TCQ9 572-655): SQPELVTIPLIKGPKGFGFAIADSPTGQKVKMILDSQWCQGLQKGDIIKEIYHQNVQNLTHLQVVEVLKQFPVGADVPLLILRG

MAGI3_4, Q5TCQ9 = target: MAGI3_4, Q5TCQ9
Sequence of MAGI3_4, Q5TCQ9 (Q5TCQ9 716-815): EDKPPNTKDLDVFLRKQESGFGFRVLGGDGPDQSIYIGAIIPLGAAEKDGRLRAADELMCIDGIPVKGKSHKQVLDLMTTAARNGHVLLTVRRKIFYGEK

MPDZ_13, O75970 = target: T4, MPDZ_13, O75970
T4 sequence (O75970 1982-2070, limits assumed, looked up): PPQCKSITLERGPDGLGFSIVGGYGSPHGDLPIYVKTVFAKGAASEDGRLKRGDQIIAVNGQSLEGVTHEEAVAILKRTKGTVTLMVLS

NHERF1_1, O14745 = target: T5, NHERF1_1, O14745
T5 sequence (O14745 9-104, limits assumed, looked up): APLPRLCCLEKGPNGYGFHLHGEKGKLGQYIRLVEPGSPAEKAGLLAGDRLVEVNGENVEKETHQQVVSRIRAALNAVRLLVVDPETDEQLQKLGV

NHERF3_2, Q5T2W1 = target: T6, NHERF3_2, Q5T2W1
T6 sequence (Q5T2W1 129-225, limits assumed, looked up): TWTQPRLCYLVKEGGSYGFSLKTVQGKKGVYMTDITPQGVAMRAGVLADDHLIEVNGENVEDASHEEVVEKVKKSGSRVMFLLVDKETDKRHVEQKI

PARD3B_2, Q8TEW8 = target: PARD3B_2, Q8TEW8
Sequence of PARD3B_2, Q8TEW8 (Q8TEW8 376-471): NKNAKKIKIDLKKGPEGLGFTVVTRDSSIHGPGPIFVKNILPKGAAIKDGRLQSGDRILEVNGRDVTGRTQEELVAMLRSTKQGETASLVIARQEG

PARD3B_3, Q8TEW8 = target: PARD3B_3, Q8TEW8
Sequence of PARD3B_3, Q8TEW8 (Q8TEW8 490-594): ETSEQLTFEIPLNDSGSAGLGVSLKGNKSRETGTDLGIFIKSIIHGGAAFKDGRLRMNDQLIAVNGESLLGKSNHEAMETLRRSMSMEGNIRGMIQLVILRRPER

PARD6B, Q9BYG5 = target: T7, PARD6B, Q9BYG5
T7 sequence (Q9BYG5 152-260, limits assumed, looked up): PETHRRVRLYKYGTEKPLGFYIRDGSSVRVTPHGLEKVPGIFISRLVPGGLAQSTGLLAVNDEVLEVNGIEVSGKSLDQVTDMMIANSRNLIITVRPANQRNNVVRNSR

PDZD11, Q5EBL8 = target: T8, PDZD11, Q5EBL8
T8 sequence (Q5EBL8 42-139, limits assumed, looked up): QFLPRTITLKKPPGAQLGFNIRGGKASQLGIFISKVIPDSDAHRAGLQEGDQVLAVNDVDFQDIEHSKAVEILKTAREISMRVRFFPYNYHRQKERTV

PDZRN4_2, Q6ZMN7 = target: PDZRN4_2, Q6ZMN7
Sequence of PDZRN4_2, Q6ZMN7 (Q6ZMN7 389-498): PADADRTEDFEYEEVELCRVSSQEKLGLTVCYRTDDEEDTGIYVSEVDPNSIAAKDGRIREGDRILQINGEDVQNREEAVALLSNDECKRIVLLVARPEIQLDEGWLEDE

PREX2_2, Q70Z35 = target: T9, PREX2_2, Q70Z35
T9 sequence (Q70Z35 672-764, limits assumed, looked up): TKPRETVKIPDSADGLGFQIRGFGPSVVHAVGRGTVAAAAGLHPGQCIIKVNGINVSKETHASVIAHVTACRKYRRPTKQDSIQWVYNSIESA

PTPN13_4, Q12923 = target: T10, PTPN13_4, Q12923
T10 sequence (Q12923 1783-1878, limits assumed, looked up): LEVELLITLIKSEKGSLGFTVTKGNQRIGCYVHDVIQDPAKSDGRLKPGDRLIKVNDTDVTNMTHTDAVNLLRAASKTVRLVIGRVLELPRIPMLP

RGS12, O14924 = target: T11, RGS12, O14924
T11 sequence (O14924 17-108, limits assumed, looked up): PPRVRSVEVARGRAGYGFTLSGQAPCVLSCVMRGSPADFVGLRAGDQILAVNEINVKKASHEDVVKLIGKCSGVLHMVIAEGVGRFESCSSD

RGS3, P49796-9 = target: RGS3, P49796-9
Sequence of RGS3, P49796-9 (P49796 other isoform, or with tags, fused parts or gaps): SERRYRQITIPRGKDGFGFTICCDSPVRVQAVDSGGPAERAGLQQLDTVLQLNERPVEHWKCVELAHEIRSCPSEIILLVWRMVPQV

SYNPO2L, Q9H987 = target: T12, SYNPO2L, Q9H987
T12 sequence (Q9H987 1-98, limits assumed, looked up): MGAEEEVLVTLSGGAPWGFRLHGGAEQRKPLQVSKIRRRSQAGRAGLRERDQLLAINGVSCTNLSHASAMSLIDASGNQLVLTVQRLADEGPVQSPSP

TJP3_2, O95049 = target: T13, TJP3_2, O95049
T13 sequence (O95049 190-282, limits assumed, looked up): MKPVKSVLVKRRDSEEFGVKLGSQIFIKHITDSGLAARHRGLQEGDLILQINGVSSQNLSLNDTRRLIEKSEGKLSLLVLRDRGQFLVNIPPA

[1] = modified: phospho on S at position -3 from the C-terminal residue
[2] = modified: acetyl on K at position -1 from the C-terminal residue
[3] = plain residues with an end cap or a label only (N-terminal biotin on a linker: (peg)3)

B1: RPS6KA1_-3P, Q15418 (peptide)
chain: RRVRKLPSTTL
In the case of B1, the pKd (APBA3_2, O96018; [1]) is reported as “below the threshold”, the pKd (DLG2_1, Q15700; [1]) is reported as 3.69 and the pKd (DLG2_3, Q15700; [1]) is reported as “below the threshold”. For the same binder, the pKd (DLG5_2, Q8TDM6; [1]) was “below the threshold”, the pKd (DVL1, O14640; [1]) was “below the threshold” and the pKd (FRMPD4, Q14CM0; [1]) was 3.73. The pKd (INTU, Q9ULD6; [1]) was “below the threshold”, the pKd (Inadl_7, Q8NI35; [1]) was “below the threshold” and the pKd (MAGI3_3, Q5TCQ9; [1]) was “below the threshold”. For the same binder, the pKd (MAGI3_4, Q5TCQ9; [1]) was “below the threshold”, the pKd (MPDZ_13, O75970; [1]) was 3.72 and the pKd (NHERF1_1, O14745; [1]) was “below the threshold”. For the same binder, the pKd (NHERF3_2, Q5T2W1; [1]) was “below the threshold”, the pKd (PARD3B_2, Q8TEW8; [1]) was “below the threshold” and the pKd (PARD3B_3, Q8TEW8; [1]) was “below the threshold”. The pKd (PARD6B, Q9BYG5; [1]) was “below the threshold”, the pKd (PDZD11, Q5EBL8; [1]) was “below the threshold” and the pKd (PDZRN4_2, Q6ZMN7; [1]) was “below the threshold”. For the same binder, the pKd (PREX2_2, Q70Z35; [1]) was “below the threshold”, the pKd (PTPN13_4, Q12923; [1]) was “below the threshold” and the pKd (RGS12, O14924; [1]) was “below the threshold”. The pKd (RGS3, P49796-9; [1]) was “below the threshold”, the pKd (SYNPO2L, Q9H987; [1]) was “below the threshold” and the pKd (TJP3_2, O95049; [1]) was “below the threshold”.

B2: PTEN_Ac, P60484 (peptide)
chain: DEDQHTQITKV
With B2 the pKd (APBA3_2, O96018; [2]) was “below the threshold”, the pKd (DLG2_1, Q15700; [2]) was 3.98 and the pKd (DLG2_3, Q15700; [2]) was “below the threshold”. For the same binder, the pKd (DLG5_2, Q8TDM6; [2]) was “below the threshold”, the pKd (DVL1, O14640; [2]) was “below the threshold” and the pKd (FRMPD4, Q14CM0; [2]) was “below the threshold”. The pKd (INTU, Q9ULD6; [2]) was “below the threshold”, the pKd (Inadl_7, Q8NI35; [2]) was 4.2 and the pKd (MAGI3_3, Q5TCQ9; [2]) was “below the threshold”. For the same binder, the pKd (MAGI3_4, Q5TCQ9; [2]) was “below the threshold”, the pKd (MPDZ_13, O75970; [2]) was 4.29 and the pKd (NHERF1_1, O14745; [2]) was 4.85. For the same binder, the pKd (NHERF3_2, Q5T2W1; [2]) was 3.61, the pKd (PARD3B_2, Q8TEW8; [2]) was “below the threshold” and the pKd (PARD3B_3, Q8TEW8; [2]) was “below the threshold”. The pKd (PARD6B, Q9BYG5; [2]) was “below the threshold”, the pKd (PDZD11, Q5EBL8; [2]) was “below the threshold” and the pKd (PDZRN4_2, Q6ZMN7; [2]) was “below the threshold”. The pKd (PREX2_2, Q70Z35; [2]) was “below the threshold”, the pKd (PTPN13_4, Q12923; [2]) was 4.96 and the pKd (RGS12, O14924; [2]) was “below the threshold”. The pKd (RGS3, P49796-9; [2]) was “below the threshold”, the pKd (SYNPO2L, Q9H987; [2]) was “below the threshold” and the pKd (TJP3_2, O95049; [2]) was “below the threshold”.

B3: SARS-Cov2-3a, P0DTC3 (peptide)
chain: YDEPTTTTSVPL
For B3, the pKd (APBA3_2, O96018; [3]) was “below the threshold”, the pKd (DLG2_1, Q15700; [3]) was “below the threshold” and the pKd (DLG2_3, Q15700; [3]) was “below the threshold”. For the same binder, the pKd (DLG5_2, Q8TDM6; [3]) was “below the threshold”, the pKd (DVL1, O14640; [3]) was “below the threshold” and the pKd (FRMPD4, Q14CM0; [3]) was 3.97. For the same binder, the pKd (INTU, Q9ULD6; [3]) was 3.86, the pKd (Inadl_7, Q8NI35; [3]) was “below the threshold” and the pKd (MAGI3_3, Q5TCQ9; [3]) was “below the threshold”. For the same binder, the pKd (MAGI3_4, Q5TCQ9; [3]) was “below the threshold”, the pKd (MPDZ_13, O75970; [3]) was “below the threshold” and the pKd (NHERF1_1, O14745; [3]) was “below the threshold”. For the same binder, the pKd (NHERF3_2, Q5T2W1; [3]) was “below the threshold”, the pKd (PARD3B_2, Q8TEW8; [3]) was “below the threshold” and the pKd (PARD3B_3, Q8TEW8; [3]) was “below the threshold”. For the same binder, the pKd (PARD6B, Q9BYG5; [3]) was “below the threshold”, the pKd (PDZD11, Q5EBL8; [3]) was “below the threshold” and the pKd (PDZRN4_2, Q6ZMN7; [3]) was “below the threshold”. For the same binder, the pKd (PREX2_2, Q70Z35; [3]) was “below the threshold”, the pKd (PTPN13_4, Q12923; [3]) was “below the threshold” and the pKd (RGS12, O14924; [3]) was “below the threshold”. For the same binder, the pKd (RGS3, P49796-9; [3]) was 4.19, the pKd (SYNPO2L, Q9H987; [3]) was “below the threshold” and the pKd (TJP3_2, O95049; [3]) was “below the threshold”.
